In patent US20150344570A1 (published 2015) one finds Ho/Con_2b data, which are given here for 20 molecules.

T1: FcγRIIb extracellular domain with C-terminal His tag (human, UniProt P31994 43-217)
T1 construct: extracellular domain; also called FcgRIIb; 2b; not shown: His tag at the C terminus
T1 sequence (looked up): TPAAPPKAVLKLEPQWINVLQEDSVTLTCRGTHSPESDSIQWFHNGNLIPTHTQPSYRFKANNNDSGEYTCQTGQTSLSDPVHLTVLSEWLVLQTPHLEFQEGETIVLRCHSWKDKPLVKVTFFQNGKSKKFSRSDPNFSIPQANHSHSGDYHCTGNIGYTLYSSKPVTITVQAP

B1: GpH7-B3 variant H268_09D/GpL16-k0 (antibody, human IgG1, kappa)
heavy: not shown
light: DIVMTQSPLSLPVTPGEPASISCQASESLVHSNRNTYLHWYLQKPGQSPQLLIYKVSNRFSGVPDRFSGSGSGTDFTLKISRVEAEDVGVYYCSQNTHVPPTFGQGTKVEIERTVAAPSVFIFPPSDEQLKSGTASVVCLLNNFYPREAKVQWKVDNALQSGNSQESVTEQDSKDSTYSLSSTLTLSKADYEKHKVYACEVTHQGLSSPVTKSFNRGEC
notes: also called Ho Ab H268_09D
B2: GpH7-B3 variant K326_15Y/GpL16-k0 (antibody, human IgG1, kappa)
heavy: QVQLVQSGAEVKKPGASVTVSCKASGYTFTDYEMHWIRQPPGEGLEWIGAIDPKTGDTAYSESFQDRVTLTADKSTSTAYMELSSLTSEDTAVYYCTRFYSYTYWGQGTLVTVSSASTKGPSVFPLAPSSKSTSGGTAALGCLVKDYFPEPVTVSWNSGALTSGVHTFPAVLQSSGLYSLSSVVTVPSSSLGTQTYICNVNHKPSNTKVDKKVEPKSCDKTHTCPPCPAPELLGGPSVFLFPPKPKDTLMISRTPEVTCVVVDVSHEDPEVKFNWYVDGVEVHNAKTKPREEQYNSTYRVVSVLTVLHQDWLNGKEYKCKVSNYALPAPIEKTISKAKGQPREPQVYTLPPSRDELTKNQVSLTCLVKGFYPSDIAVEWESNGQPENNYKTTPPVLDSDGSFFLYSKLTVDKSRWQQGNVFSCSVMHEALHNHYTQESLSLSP
light: DIVMTQSPLSLPVTPGEPASISCQASESLVHSNRNTYLHWYLQKPGQSPQLLIYKVSNRFSGVPDRFSGSGSGTDFTLKISRVEAEDVGVYYCSQNTHVPPTFGQGTKVEIERTVAAPSVFIFPPSDEQLKSGTASVVCLLNNFYPREAKVQWKVDNALQSGNSQESVTEQDSKDSTYSLSSTLTLSKADYEKHKVYACEVTHQGLSSPVTKSFNRGEC
notes: also called Ho Ab K326_15Y
B3: GpH7-B3 variant K326_06M/GpL16-k0 (antibody, human IgG1, kappa)
heavy: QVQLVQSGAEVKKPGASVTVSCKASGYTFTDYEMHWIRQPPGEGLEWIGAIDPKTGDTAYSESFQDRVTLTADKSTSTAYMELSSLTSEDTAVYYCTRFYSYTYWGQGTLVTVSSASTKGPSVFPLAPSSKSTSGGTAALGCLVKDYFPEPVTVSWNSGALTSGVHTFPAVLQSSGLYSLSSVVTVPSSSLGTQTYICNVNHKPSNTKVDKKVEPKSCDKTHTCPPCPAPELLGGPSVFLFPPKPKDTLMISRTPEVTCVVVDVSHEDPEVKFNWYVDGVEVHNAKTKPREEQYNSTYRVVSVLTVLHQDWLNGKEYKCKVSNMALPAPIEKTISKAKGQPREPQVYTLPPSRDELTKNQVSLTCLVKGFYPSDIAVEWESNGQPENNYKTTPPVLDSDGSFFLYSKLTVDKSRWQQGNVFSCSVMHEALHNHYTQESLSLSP
light: DIVMTQSPLSLPVTPGEPASISCQASESLVHSNRNTYLHWYLQKPGQSPQLLIYKVSNRFSGVPDRFSGSGSGTDFTLKISRVEAEDVGVYYCSQNTHVPPTFGQGTKVEIERTVAAPSVFIFPPSDEQLKSGTASVVCLLNNFYPREAKVQWKVDNALQSGNSQESVTEQDSKDSTYSLSSTLTLSKADYEKHKVYACEVTHQGLSSPVTKSFNRGEC
notes: also called Ho Ab K326_06M
B4: GpH7-B3 variant H268_10E/GpL16-k0 (antibody, human IgG1, kappa)
heavy: not shown
light: DIVMTQSPLSLPVTPGEPASISCQASESLVHSNRNTYLHWYLQKPGQSPQLLIYKVSNRFSGVPDRFSGSGSGTDFTLKISRVEAEDVGVYYCSQNTHVPPTFGQGTKVEIERTVAAPSVFIFPPSDEQLKSGTASVVCLLNNFYPREAKVQWKVDNALQSGNSQESVTEQDSKDSTYSLSSTLTLSKADYEKHKVYACEVTHQGLSSPVTKSFNRGEC
notes: also called Ho Ab H268_10E
B5: GpH7-B3 variant K326_16H/GpL16-k0 (antibody, human IgG1, kappa)
heavy: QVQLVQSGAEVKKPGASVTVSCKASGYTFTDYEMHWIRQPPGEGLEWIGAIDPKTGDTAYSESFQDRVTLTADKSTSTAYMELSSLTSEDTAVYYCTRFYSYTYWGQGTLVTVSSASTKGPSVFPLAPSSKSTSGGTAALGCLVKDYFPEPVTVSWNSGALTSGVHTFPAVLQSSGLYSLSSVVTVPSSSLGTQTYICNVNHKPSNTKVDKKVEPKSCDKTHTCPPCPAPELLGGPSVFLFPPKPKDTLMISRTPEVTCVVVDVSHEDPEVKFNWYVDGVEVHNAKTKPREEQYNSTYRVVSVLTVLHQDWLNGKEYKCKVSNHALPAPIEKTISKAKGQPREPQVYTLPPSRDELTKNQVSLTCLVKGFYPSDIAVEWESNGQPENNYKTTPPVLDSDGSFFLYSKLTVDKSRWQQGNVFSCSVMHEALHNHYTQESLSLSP
light: DIVMTQSPLSLPVTPGEPASISCQASESLVHSNRNTYLHWYLQKPGQSPQLLIYKVSNRFSGVPDRFSGSGSGTDFTLKISRVEAEDVGVYYCSQNTHVPPTFGQGTKVEIERTVAAPSVFIFPPSDEQLKSGTASVVCLLNNFYPREAKVQWKVDNALQSGNSQESVTEQDSKDSTYSLSSTLTLSKADYEKHKVYACEVTHQGLSSPVTKSFNRGEC
notes: also called Ho Ab K326_16H
B6: GpH7-B3 variant K326_08L/GpL16-k0 (antibody, human IgG1, kappa)
heavy: not shown
light: DIVMTQSPLSLPVTPGEPASISCQASESLVHSNRNTYLHWYLQKPGQSPQLLIYKVSNRFSGVPDRFSGSGSGTDFTLKISRVEAEDVGVYYCSQNTHVPPTFGQGTKVEIERTVAAPSVFIFPPSDEQLKSGTASVVCLLNNFYPREAKVQWKVDNALQSGNSQESVTEQDSKDSTYSLSSTLTLSKADYEKHKVYACEVTHQGLSSPVTKSFNRGEC
notes: also called Ho Ab K326_08L
B7: GpH7-B3 variant H268_18N/GpL16-k0 (antibody, human IgG1, kappa)
heavy: not shown
light: DIVMTQSPLSLPVTPGEPASISCQASESLVHSNRNTYLHWYLQKPGQSPQLLIYKVSNRFSGVPDRFSGSGSGTDFTLKISRVEAEDVGVYYCSQNTHVPPTFGQGTKVEIERTVAAPSVFIFPPSDEQLKSGTASVVCLLNNFYPREAKVQWKVDNALQSGNSQESVTEQDSKDSTYSLSSTLTLSKADYEKHKVYACEVTHQGLSSPVTKSFNRGEC
notes: also called Ho Ab H268_18N
B8: GpH7-B3 variant I336_08L/GpL16-k0 (antibody, human IgG1, kappa)
heavy: not shown
light: DIVMTQSPLSLPVTPGEPASISCQASESLVHSNRNTYLHWYLQKPGQSPQLLIYKVSNRFSGVPDRFSGSGSGTDFTLKISRVEAEDVGVYYCSQNTHVPPTFGQGTKVEIERTVAAPSVFIFPPSDEQLKSGTASVVCLLNNFYPREAKVQWKVDNALQSGNSQESVTEQDSKDSTYSLSSTLTLSKADYEKHKVYACEVTHQGLSSPVTKSFNRGEC
notes: also called Ho Ab I336_08L
B9: GpH7-B3 variant I332_10E/GpL16-k0 (antibody, human IgG1, kappa)
heavy: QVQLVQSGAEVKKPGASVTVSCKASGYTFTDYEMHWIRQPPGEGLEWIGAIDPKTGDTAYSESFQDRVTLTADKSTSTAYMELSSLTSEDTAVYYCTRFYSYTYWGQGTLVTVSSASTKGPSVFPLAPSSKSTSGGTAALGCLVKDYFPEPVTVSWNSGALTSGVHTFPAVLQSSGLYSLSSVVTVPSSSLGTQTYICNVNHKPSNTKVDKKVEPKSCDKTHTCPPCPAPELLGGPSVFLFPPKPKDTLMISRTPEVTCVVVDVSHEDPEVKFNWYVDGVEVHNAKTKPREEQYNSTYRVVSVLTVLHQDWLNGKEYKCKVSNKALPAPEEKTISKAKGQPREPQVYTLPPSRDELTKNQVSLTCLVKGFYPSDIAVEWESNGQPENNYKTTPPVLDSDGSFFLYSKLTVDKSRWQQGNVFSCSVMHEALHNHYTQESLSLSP
light: DIVMTQSPLSLPVTPGEPASISCQASESLVHSNRNTYLHWYLQKPGQSPQLLIYKVSNRFSGVPDRFSGSGSGTDFTLKISRVEAEDVGVYYCSQNTHVPPTFGQGTKVEIERTVAAPSVFIFPPSDEQLKSGTASVVCLLNNFYPREAKVQWKVDNALQSGNSQESVTEQDSKDSTYSLSSTLTLSKADYEKHKVYACEVTHQGLSSPVTKSFNRGEC
notes: also called Ho Ab I332_10E
B10: GpH7-B3 variant K326_04F/GpL16-k0 (antibody, human IgG1, kappa)
heavy: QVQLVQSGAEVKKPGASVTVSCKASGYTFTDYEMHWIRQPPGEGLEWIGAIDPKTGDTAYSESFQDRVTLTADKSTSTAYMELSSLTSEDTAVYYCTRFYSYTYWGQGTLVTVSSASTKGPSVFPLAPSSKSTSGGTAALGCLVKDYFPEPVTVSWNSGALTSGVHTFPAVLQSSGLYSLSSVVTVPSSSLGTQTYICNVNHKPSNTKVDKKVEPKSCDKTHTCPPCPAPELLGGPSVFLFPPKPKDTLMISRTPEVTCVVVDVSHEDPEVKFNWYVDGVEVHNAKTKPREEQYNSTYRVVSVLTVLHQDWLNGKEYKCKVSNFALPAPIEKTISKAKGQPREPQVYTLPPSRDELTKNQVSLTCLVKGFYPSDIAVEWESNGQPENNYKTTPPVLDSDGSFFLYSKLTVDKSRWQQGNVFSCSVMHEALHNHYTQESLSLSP
light: DIVMTQSPLSLPVTPGEPASISCQASESLVHSNRNTYLHWYLQKPGQSPQLLIYKVSNRFSGVPDRFSGSGSGTDFTLKISRVEAEDVGVYYCSQNTHVPPTFGQGTKVEIERTVAAPSVFIFPPSDEQLKSGTASVVCLLNNFYPREAKVQWKVDNALQSGNSQESVTEQDSKDSTYSLSSTLTLSKADYEKHKVYACEVTHQGLSSPVTKSFNRGEC
notes: also called Ho Ab K326_04F
B11: GpH7-B3 variant K326_09D/GpL16-k0 (antibody, human IgG1, kappa)
heavy: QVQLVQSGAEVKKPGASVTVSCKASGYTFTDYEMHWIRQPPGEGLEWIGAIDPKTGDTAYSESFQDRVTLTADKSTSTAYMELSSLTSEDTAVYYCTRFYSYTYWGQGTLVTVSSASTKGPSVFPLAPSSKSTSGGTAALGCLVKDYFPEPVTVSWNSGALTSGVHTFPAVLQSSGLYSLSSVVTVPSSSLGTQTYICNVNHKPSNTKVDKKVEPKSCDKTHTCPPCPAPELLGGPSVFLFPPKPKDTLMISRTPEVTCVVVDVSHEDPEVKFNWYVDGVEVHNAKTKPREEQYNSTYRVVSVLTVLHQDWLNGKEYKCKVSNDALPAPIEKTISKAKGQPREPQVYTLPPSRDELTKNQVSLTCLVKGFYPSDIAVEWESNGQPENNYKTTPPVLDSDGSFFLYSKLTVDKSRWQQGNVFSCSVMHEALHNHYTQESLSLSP
light: DIVMTQSPLSLPVTPGEPASISCQASESLVHSNRNTYLHWYLQKPGQSPQLLIYKVSNRFSGVPDRFSGSGSGTDFTLKISRVEAEDVGVYYCSQNTHVPPTFGQGTKVEIERTVAAPSVFIFPPSDEQLKSGTASVVCLLNNFYPREAKVQWKVDNALQSGNSQESVTEQDSKDSTYSLSSTLTLSKADYEKHKVYACEVTHQGLSSPVTKSFNRGEC
notes: also called Ho Ab K326_09D
B12: GpH7-B3 variant H268_13S/GpL16-k0 (antibody, human IgG1, kappa)
heavy: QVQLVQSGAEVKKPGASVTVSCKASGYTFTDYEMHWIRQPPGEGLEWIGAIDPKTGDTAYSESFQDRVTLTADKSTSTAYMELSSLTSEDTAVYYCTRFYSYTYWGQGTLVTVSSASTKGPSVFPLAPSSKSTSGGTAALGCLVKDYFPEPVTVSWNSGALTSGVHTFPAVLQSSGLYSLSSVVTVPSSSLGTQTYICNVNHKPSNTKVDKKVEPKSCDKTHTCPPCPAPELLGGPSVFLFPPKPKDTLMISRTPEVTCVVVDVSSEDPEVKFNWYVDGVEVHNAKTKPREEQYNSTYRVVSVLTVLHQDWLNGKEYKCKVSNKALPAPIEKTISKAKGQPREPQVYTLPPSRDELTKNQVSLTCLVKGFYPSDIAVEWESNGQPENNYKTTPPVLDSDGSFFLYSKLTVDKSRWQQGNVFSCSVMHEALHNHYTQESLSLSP
light: DIVMTQSPLSLPVTPGEPASISCQASESLVHSNRNTYLHWYLQKPGQSPQLLIYKVSNRFSGVPDRFSGSGSGTDFTLKISRVEAEDVGVYYCSQNTHVPPTFGQGTKVEIERTVAAPSVFIFPPSDEQLKSGTASVVCLLNNFYPREAKVQWKVDNALQSGNSQESVTEQDSKDSTYSLSSTLTLSKADYEKHKVYACEVTHQGLSSPVTKSFNRGEC
notes: also called Ho Ab H268_13S
B13: GpH7-B3 variant K326_14T/GpL16-k0 (antibody, human IgG1, kappa)
heavy: not shown
light: DIVMTQSPLSLPVTPGEPASISCQASESLVHSNRNTYLHWYLQKPGQSPQLLIYKVSNRFSGVPDRFSGSGSGTDFTLKISRVEAEDVGVYYCSQNTHVPPTFGQGTKVEIERTVAAPSVFIFPPSDEQLKSGTASVVCLLNNFYPREAKVQWKVDNALQSGNSQESVTEQDSKDSTYSLSSTLTLSKADYEKHKVYACEVTHQGLSSPVTKSFNRGEC
notes: also called Ho Ab K326_14T
B14: GpH7-B3 variant K326_03V/GpL16-k0 (antibody, human IgG1, kappa)
heavy: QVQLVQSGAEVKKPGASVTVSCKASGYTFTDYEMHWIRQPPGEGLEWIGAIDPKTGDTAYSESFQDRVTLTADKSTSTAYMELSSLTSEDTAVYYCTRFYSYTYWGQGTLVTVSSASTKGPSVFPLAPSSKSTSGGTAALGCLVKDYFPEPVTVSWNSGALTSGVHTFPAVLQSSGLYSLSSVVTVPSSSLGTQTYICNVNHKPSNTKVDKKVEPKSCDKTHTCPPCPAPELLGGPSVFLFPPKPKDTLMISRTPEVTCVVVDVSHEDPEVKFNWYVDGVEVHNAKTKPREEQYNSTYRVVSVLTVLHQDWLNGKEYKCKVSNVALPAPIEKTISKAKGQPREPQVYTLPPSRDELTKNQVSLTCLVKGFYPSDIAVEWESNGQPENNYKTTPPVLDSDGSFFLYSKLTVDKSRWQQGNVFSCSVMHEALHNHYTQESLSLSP
light: DIVMTQSPLSLPVTPGEPASISCQASESLVHSNRNTYLHWYLQKPGQSPQLLIYKVSNRFSGVPDRFSGSGSGTDFTLKISRVEAEDVGVYYCSQNTHVPPTFGQGTKVEIERTVAAPSVFIFPPSDEQLKSGTASVVCLLNNFYPREAKVQWKVDNALQSGNSQESVTEQDSKDSTYSLSSTLTLSKADYEKHKVYACEVTHQGLSSPVTKSFNRGEC
notes: also called Ho Ab K326_03V
B15: GpH7-B3 variant I332_14T/GpL16-k0 (antibody, human IgG1, kappa)
heavy: not shown
light: DIVMTQSPLSLPVTPGEPASISCQASESLVHSNRNTYLHWYLQKPGQSPQLLIYKVSNRFSGVPDRFSGSGSGTDFTLKISRVEAEDVGVYYCSQNTHVPPTFGQGTKVEIERTVAAPSVFIFPPSDEQLKSGTASVVCLLNNFYPREAKVQWKVDNALQSGNSQESVTEQDSKDSTYSLSSTLTLSKADYEKHKVYACEVTHQGLSSPVTKSFNRGEC
notes: also called Ho Ab I332_14T
B16: GpH7-B3 variant I332_06M/GpL16-k0 (antibody, human IgG1, kappa)
heavy: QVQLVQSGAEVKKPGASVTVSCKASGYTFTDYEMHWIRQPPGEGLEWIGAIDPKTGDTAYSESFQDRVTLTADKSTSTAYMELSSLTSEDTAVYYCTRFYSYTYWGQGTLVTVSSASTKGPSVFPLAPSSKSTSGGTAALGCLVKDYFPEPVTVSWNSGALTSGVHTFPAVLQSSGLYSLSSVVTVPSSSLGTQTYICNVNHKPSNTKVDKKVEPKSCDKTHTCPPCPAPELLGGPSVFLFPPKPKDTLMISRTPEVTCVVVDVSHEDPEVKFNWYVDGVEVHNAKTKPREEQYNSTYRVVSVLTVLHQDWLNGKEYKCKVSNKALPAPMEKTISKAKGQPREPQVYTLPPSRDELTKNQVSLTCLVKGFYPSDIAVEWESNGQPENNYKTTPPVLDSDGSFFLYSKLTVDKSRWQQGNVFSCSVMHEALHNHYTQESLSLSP
light: DIVMTQSPLSLPVTPGEPASISCQASESLVHSNRNTYLHWYLQKPGQSPQLLIYKVSNRFSGVPDRFSGSGSGTDFTLKISRVEAEDVGVYYCSQNTHVPPTFGQGTKVEIERTVAAPSVFIFPPSDEQLKSGTASVVCLLNNFYPREAKVQWKVDNALQSGNSQESVTEQDSKDSTYSLSSTLTLSKADYEKHKVYACEVTHQGLSSPVTKSFNRGEC
notes: also called Ho Ab I332_06M
B17: GpH7-B3 variant K326_10E/GpL16-k0 (antibody, human IgG1, kappa)
heavy: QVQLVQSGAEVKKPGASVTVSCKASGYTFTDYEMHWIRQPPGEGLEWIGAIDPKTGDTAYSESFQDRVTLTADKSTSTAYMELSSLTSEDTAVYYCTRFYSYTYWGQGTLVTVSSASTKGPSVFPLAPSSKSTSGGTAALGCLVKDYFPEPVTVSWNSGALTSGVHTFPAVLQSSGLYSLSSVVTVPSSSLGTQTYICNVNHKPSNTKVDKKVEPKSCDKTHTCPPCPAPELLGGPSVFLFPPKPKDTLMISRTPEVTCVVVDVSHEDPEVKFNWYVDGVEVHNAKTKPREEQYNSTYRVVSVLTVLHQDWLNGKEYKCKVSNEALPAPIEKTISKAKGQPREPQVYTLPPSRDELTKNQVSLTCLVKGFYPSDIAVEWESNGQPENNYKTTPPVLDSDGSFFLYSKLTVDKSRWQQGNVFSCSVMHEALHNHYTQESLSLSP
light: DIVMTQSPLSLPVTPGEPASISCQASESLVHSNRNTYLHWYLQKPGQSPQLLIYKVSNRFSGVPDRFSGSGSGTDFTLKISRVEAEDVGVYYCSQNTHVPPTFGQGTKVEIERTVAAPSVFIFPPSDEQLKSGTASVVCLLNNFYPREAKVQWKVDNALQSGNSQESVTEQDSKDSTYSLSSTLTLSKADYEKHKVYACEVTHQGLSSPVTKSFNRGEC
notes: also called Ho Ab K326_10E
B18: GpH7-B3 variant I332_15Y/GpL16-k0 (antibody, human IgG1, kappa)
heavy: not shown
light: DIVMTQSPLSLPVTPGEPASISCQASESLVHSNRNTYLHWYLQKPGQSPQLLIYKVSNRFSGVPDRFSGSGSGTDFTLKISRVEAEDVGVYYCSQNTHVPPTFGQGTKVEIERTVAAPSVFIFPPSDEQLKSGTASVVCLLNNFYPREAKVQWKVDNALQSGNSQESVTEQDSKDSTYSLSSTLTLSKADYEKHKVYACEVTHQGLSSPVTKSFNRGEC
notes: also called Ho Ab I332_15Y
B19: GpH7-B3 variant I332_09D/GpL16-k0 (antibody, human IgG1, kappa)
heavy: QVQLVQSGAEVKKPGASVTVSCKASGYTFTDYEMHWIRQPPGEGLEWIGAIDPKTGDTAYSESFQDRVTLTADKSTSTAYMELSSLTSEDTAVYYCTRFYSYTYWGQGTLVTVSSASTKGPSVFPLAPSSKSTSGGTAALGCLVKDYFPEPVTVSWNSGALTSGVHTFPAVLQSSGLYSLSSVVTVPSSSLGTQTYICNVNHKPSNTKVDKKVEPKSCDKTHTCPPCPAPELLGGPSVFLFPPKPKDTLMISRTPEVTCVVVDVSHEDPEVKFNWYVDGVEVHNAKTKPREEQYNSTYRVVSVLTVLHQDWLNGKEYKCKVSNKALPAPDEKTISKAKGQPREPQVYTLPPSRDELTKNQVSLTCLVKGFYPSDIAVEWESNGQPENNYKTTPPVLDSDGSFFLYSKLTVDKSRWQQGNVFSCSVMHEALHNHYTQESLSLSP
light: DIVMTQSPLSLPVTPGEPASISCQASESLVHSNRNTYLHWYLQKPGQSPQLLIYKVSNRFSGVPDRFSGSGSGTDFTLKISRVEAEDVGVYYCSQNTHVPPTFGQGTKVEIERTVAAPSVFIFPPSDEQLKSGTASVVCLLNNFYPREAKVQWKVDNALQSGNSQESVTEQDSKDSTYSLSSTLTLSKADYEKHKVYACEVTHQGLSSPVTKSFNRGEC
notes: also called Ho Ab I332_09D
B20: GpH7-B3 variant I332_04F/GpL16-k0 (antibody, human IgG1, kappa)
heavy: not shown
light: DIVMTQSPLSLPVTPGEPASISCQASESLVHSNRNTYLHWYLQKPGQSPQLLIYKVSNRFSGVPDRFSGSGSGTDFTLKISRVEAEDVGVYYCSQNTHVPPTFGQGTKVEIERTVAAPSVFIFPPSDEQLKSGTASVVCLLNNFYPREAKVQWKVDNALQSGNSQESVTEQDSKDSTYSLSSTLTLSKADYEKHKVYACEVTHQGLSSPVTKSFNRGEC
notes: also called Ho Ab I332_04F

The experiment deals with T1, FcγRIIb extracellular domain with …. Briefly: SPR, relative binding, HoCon Ab = 100. How it is done: Analysis of interaction between objective antibody and the FcγR was carried out using Biacore T100 (GE Healthcare). HBS-EP+ (GE Healthcare) was used as the running buffer, and the measurement temperature was set to 25° C. Chips produced by immobilizing the antigen peptide by the amine coupling method to a Series S Sencor Chip CM5 (GE Healthcare), or alternatively, chips produced by allowing preliminarily biotinylated antigen peptides to interact with and immobilize onto a Series S Sensor Chip SA (certified) (GE Healthcare) were used. Antibodies of interest were captured onto an antigen peptide-immobilized chip, and allowed to interact to each FcγR diluted with running buffer. To regenerate and repeatedly use the chip, the antibodies captured on the chip were washed off by reacting 10 mM glycine-HCl, pH 1.5.
For the molecule B1, the Ho/Con_2b is 298 % of control.

For B2, the Ho/Con_2b is 162 % of control.

For B3, the Ho/Con_2b was 193 % of control.

Take B4: the Ho/Con_2b was 275 % of control.

Consider B5, for which the Ho/Con_2b is 131 % of control.

Take B6: the Ho/Con_2b was 168 % of control.

B7: the Ho/Con_2b was 179 % of control.

With B8, the Ho/Con_2b is 103 % of control.

As to B9, the Ho/Con_2b was 181 % of control.

Take B10: the Ho/Con_2b is 160 % of control.

Regarding B11, the Ho/Con_2b is 240 % of control.

Take B12: the Ho/Con_2b was 186 % of control.

Regarding B13, the Ho/Con_2b was 177 % of control.

B14: the Ho/Con_2b was 184 % of control.

With B15, the Ho/Con_2b is 106 % of control.

As to B16, the Ho/Con_2b was 106 % of control.

On to B17, for which the Ho/Con_2b was 237 % of control.

Regarding B18, the Ho/Con_2b was 109 % of control.

B19: the Ho/Con_2b was 182 % of control.

Take B20: the Ho/Con_2b is 117 % of control.
